Assays:
[1] = biological target: TAG-72 antigen on a human breast carcinoma extract (human); experiment: competition ELISA, competitor biotin-CC49 IgG, human breast carcinoma extract
[2] = biological target: TAG-72 antigen on a human breast carcinoma extract (human); experiment: competition RIA, competitor 125I-CC49 IgG, human breast carcinoma extract

Substance	fold higher protein concentration needed to displace the IgG (against CC49/212 single-chain Fv) [1] [fold]	fold higher protein concentration needed to displace the IgG (against CC49 IgG and bivalent CC49/212) [2] [fold]
CC49/4-4-20 heterodimer Fv (fraction 5) (bispecific antibody)	200	
CC49/212 single-chain antigen-binding protein (monomer) (scFv)		10

Source: patent US6515110
